Here are results for four molecules from publication PMC8336524, “Yeast Bromodomain Factor 1 and Its Human Homolog TAF1 Play Conserved Roles in Promoting Homologous Recombination” (Advanced Science, 2021).

In experiment [1] the target is acetylated H4 peptide (1–22 aa) (UniProt P02309). The experiment is described as follows: ITC; protein (≈50 µM DBD or 2YF‐DBD, ≈20 µM TAF1‐DBD) titrated with H4 peptide (≈1 mM or 0.5 mM) at 25 °C; 100 mM NaCl, 50 mM Tris‐HCl pH 7.5; 19 injections; One Set of Sites model. (In general: Isothermal titration calorimetry measures the heat released or taken up as one component is titrated into another.)

The target in another experiment is T1, 6xHis‐Rfa1 (yeast, UniProt P22336 1-621).
T1 construct: Rfa1, subunit of Replication Protein A (RPA), yeast; also called RPA (in the text on the truncations); source: E. coli (BL21), pET30a(+)
The experiment is described as follows: pull-down; GST or GST fusion proteins immobilized on GSH‐sepharose beads, incubated with His‐tagged proteins at 4 °C for 4 h; wash 20 mM Tris–HCl pH 7.4, 200 mM NaCl, 0.5 mM EDTA; Western blot with anti‐His antibody. The following applies: both partners purified. Background: In western blotting, separated proteins are transferred to a membrane and probed.

T1 sequence (P22336 whole entry, the tested form may be a part): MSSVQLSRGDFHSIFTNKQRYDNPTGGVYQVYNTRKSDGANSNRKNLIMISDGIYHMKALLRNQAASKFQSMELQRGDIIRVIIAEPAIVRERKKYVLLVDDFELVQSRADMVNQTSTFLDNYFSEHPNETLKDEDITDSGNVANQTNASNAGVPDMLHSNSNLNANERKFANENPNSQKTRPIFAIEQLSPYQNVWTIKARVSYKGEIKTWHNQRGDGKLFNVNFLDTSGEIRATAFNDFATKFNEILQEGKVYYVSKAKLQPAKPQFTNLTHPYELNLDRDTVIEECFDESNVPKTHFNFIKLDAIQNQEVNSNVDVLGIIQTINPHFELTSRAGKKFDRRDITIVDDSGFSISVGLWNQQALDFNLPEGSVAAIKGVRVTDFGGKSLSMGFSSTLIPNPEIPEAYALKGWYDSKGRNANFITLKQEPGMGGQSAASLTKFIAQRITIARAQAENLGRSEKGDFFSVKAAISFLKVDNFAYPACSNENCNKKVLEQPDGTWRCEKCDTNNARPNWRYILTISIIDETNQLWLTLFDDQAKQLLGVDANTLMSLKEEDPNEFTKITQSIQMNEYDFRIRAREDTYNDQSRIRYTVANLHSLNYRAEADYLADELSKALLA

As to “DBD of Bdf1 used for ITC (domain or fragment)”, the Kd (commonly the free concentration of one partner at which half of the binding sites on the other are occupied at equilibrium, for simple one-to-one binding) in experiment [1] worked out at 6 µM.

In experiment [1], “TAF1‐DBD used for ITC (domain or fragment)” came in with a Kd of 5 µM.

B1: GST‐Bdf1 residues 1–317 (domain or fragment, yeast, UniProt P35817 1-317, looked up)
chain: MTDITPVQNDVDVNGNNVNDDVSSNLKRPIDQGDPSNGLAEEENPANNQLHLKKARLDGDALTSSPAGLAENGIEGATLAANGENGYNATGSGAEDEQQGLKKEEGGQGTKQEDLDENSKQELPMEVPKEPAPAPPPEPDMNNLPQNPIPKHQQKHALLAIKAVKRLKDARPFLQPVDPVKLDIPFYFNYIKRPMDLSTIERKLNVGAYEVPEQITEDFNLMVNNSIKFNGPNAGISQMARNIQASFEKHMLNMPAKDAPPVIAKGRRSSAQEDAPIVIRRAQTHNGRPKRTIHPPKSKDIYPYESKKPKSKRLQQA
notes: source: E. coli (BL21), pGEX4T3; immobilized onto GSH‐sepharose beads
For B1, in the experiment with 6xHis‐Rfa1, the binding result is reported as “binds”.

B2: GST‐Bdf1 residues 1–295 (domain or fragment, yeast, UniProt P35817 1-295, looked up)
chain: MTDITPVQNDVDVNGNNVNDDVSSNLKRPIDQGDPSNGLAEEENPANNQLHLKKARLDGDALTSSPAGLAENGIEGATLAANGENGYNATGSGAEDEQQGLKKEEGGQGTKQEDLDENSKQELPMEVPKEPAPAPPPEPDMNNLPQNPIPKHQQKHALLAIKAVKRLKDARPFLQPVDPVKLDIPFYFNYIKRPMDLSTIERKLNVGAYEVPEQITEDFNLMVNNSIKFNGPNAGISQMARNIQASFEKHMLNMPAKDAPPVIAKGRRSSAQEDAPIVIRRAQTHNGRPKRTIHP
notes: as for B1
As for B2, in the experiment with 6xHis‐Rfa1, the binding result is listed as “binds”.
